Measurements taken from US10495630B2, “Methods for the determination of compounds or compositions for the treatment of lipofuscin related diseases and compounds or compositions” (KATAIRO GMBH, priority 2014, dated 2019).

Tested on: Abca4 (−/−) mice
Experiment: A2E concentration in eyes of Abca4 (−/−) mice after intravitreal injection, HPLCMSMS
Assay type: in vivo
Conditions: redox active and chelating protein; intravitreal 2 μl of 20 mg/ml; one week after injection
From the text: […] […] The left eye was not treated and maintained as a control. Untreated eyes of age-matched mice lacking the Abca4 transporter were an additional control.
The concentration in each treated eye was then expressed as a percentage of the average concentration in all untreated eyes in the mice of the same age.
The left eye was not treated and maintained as a control. Untreated eyes of age-matched mice lacking the Abca4 transporter were an additional control.
The left eye was not treated and maintained as a control. Untreated eyes of age-matched mice lacking the Abca4 transporter were an additional control. […] Tryptophan is capable of absorbing and re-radiating light energy, as is riboflavin.
Water solutions were diluted 1:3 with acetonitrile and then sealed in vials for injection. 6 μL of the water acetonitrile solutions were injected onto a 2×50 mm Phenyl derived HPLC column (3 μm) and eluted with a gradient from 20% acetonitrile to 100% acetonitrile over 4 minutes at a flow rate of 500 μL/minute.

B1: Lactoferrin: protein capable of binding iron with high affinity (protein, UniProt P02788 20-710, looked up)
Lactotransferrin: GRRRSVQWCAVSQPEATKCFQWQRNMRKVRGPPVSCIKRDSPIQCIQAIAENRADAVTLDGGFIYEAGLAPYKLRPVAAEVYGTERQPRTHYYAVAVVKKGGSFQLNELQGLKSCHTGLRRTAGWNVPIGTLRPFLNWTGPPEPIEAAVARFFSASCVPGADKGQFPNLCRLCAGTGENKCAFSSQEPYFSYSGAFKCLRDGAGDVAFIRESTVFEDLSDEAERDEYELLCPDNTRKPVDKFKDCHLARVPSHAVVARSVNGKEDAIWNLLRQAQEKFGKDKSPKFQLFGSPSGQKDLLFKDSAIGFSRVPPRIDSGLYLGSGYFTAIQNLRKSEEEVAARRARVVWCAVGEQELRKCNQWSGLSEGSVTCSSASTTEDCIALVLKGEADAMSLDGGYVYTAGKCGLVPVLAENYKSQQSSDPDPNCVDRPVEGYLAVAVVRRSDTSLTWNSVKGKKSCHTAVDRTAGWNIPMGLLFNQTGSCKFDEYFSQSCAPGSDPRSNLCALCIGDEQGENKCVPNSNERYYGYTGAFRCLAENAGDVAFVKDVTVLQNTDGNNNEAWAKDLKLADFALLCLDGKRKPVTEARSCHLAMAPNHAVVSRMDKVERLKQVLLHQQAKFGRNGSDCPDKFCLFQSETKNLLFNDNTECLARLHGKTTYEKYLGPQYVAGITNLKKCSTSPLLEACEFLRK
% of A2E relative to age matched untreated: 63%
Concentration A2E (μM) in the treated eye: 20 µM
